Columns and labels:
[1] = Ability of other cytokines to enhance the effect of the QS21/MPL adjuvant; details: cytokine added in place of IL-12
[2] = Systemic toxicity of locally injected IL12 in immunised mice; assay type: in vivo

Molecule | enhancement of the effect of the QS21/MPL adjuvant [1] | systemic toxicity ([2]; decreased IL12 dose ('at that dose', b48: 10ng or 30 ng as printed)) | systemic toxic effects ([2]; high dose of IL12 (100ng (1000U)/mouse/day), P1A experiment) | systemic toxicity ([2]; high dose of IL12 (1μg/mouse/day), injected locally, P198 experiments)
GM-CSF: other cytokine tested with the QS21/MPL adjuvant | unable to enhance | – | – | –
IL-6: other cytokine tested with the QS21/MPL adjuvant | unable to enhance | – | – | –
IFN-γ: other cytokine tested with the QS21/MPL adjuvant | unable to enhance | – | – | –
IL-7: other cytokine tested with the QS21/MPL adjuvant (protein, UniProt P13232 26-177, looked up) Interleukin-7: DCDIEGKDGKQYESVLMVSIDQLLDSMKEIGSNCLNNEFNFFKRHICDANKEGMFLFRAARKLRQFLKMNSTGDFDLHLLKVSEGTTILLNCTGQVKGRKPAALGEAQPTKSLEENKSLKEQKKLNDLCFLKRLLQEIKTCWNKILMGTKEH | unable to enhance | – | – | –
IL12: murine IL12 purified from the supernatant of transfected P1HTR cells; heterodimeric cytokine (protein, UniProt P43431 23-215; P43432 23-335, looked up) Interleukin-12 subunit alpha: RVIPVSGPARCLSQSRNLLKTTDDMVKTAREKLKHYSCTAEDIDHEDITRDQTSTLKTCLPLELHKNESCLATRETSSTTRGSCLPPQKTSLMMTLCLGSIYEDLKMYQTEFQAINAALQNHNHQQIILDKGMLVAIDELMQSLNHNGETLRQKPPVGEADPYRVKMKLCILLHAFSTRVVTINRVMGYLSSA Interleukin-12 subunit beta: MWELEKDVYVVEVDWTPDAPGETVNLTCDTPEEDDITWTSDQRHGVIGSGKTLTITVKEFLDAGQYTCHKGGETLSHSHLLLHKKENGIWSTEILKNFKNKTFLKCEAPNYSGRFTCSWLVQRNMDLKFNIKSSSSSPDSRAVTCGMASLSAEKVTLDQRDYEKYSVSCQEDVTCPTAEETLPIELALEARQQNKYENYSTSFFIRDIIKPDPPKNLQMKPLKNSQVEVSWEYPDSWSTPHSYFSLKFFVRIQRKKEKMKETEEGCNQKGAFLVEKTSTEVQCKGGNVCVQAQDRYYNSSCSKWACVPCRVRS | – | largely reduced but not totally absent | we observed systemic toxic effects | systemic toxicity with symptoms similar to those observed in a LPS shock
